The text below walks through data of paper PMC5350102.

Read-outs that look alike come from different tables or passages of the source.

The target of experiment [1] is His-nNOS[1–155] (human) (UniProt P29475). Kind of experiment: fluorescence polarisation; competition FP: 1 μM F-GDLV, 4 μM His-nNOS(1–155), increasing competitor; approximate Kc (dissociation constant of the competitor, affinity for the nNOS PDZ pocket) from the single-site competition formula. A general note: Fluorescence polarisation rises when a labelled molecule tumbles more slowly, as on binding a larger partner.

Experiment [2] deals with GST-nNOS[1–155] (human) (UniProt P29475). Kind of experiment: pull-down; solid-phase no-wash binding assay: 5 μl beads bound to 1 μg GST-fused nNOS protein (or GST for background) rotated with His-TAT-NOS1AP peptides for 1 h at 4°C; unbound removed by centrifugation in filter plates, no wash; bound peptide quantified by fluorescent immunoblot; GST background subtracted; 1-site quadratic fit. (In general: A western blot detects proteins with antibodies after separation by electrophoresis.)

In experiment [3] the target is nNOS (UniProt P29475). The experiment in a line: solid-phase no-wash assay. The note with it: cited from earlier work.
Experiment [4] concerns the target nNOS (UniProt P29475). The note with it: cited from earlier work.

The Ki is a dissociation constant, usually derived from enzyme kinetics or from competition with a known ligand. Read a low Ki as higher affinity. Substance “NOS1AP[400–503] F431A cleaved from GST (from UniProt O75052 400-503) (domain or fragment)” returned a Ki in experiment [1] of more than 10 µM.

What is called Kd is the equilibrium constant for the complex coming apart. The substance “His-TAT-NOS1AP[400–503] F431A, denatured (from UniProt O75052 400-503) (domain or fragment)” returned a dissociation constant Kd in experiment [2] of 100 µM.

With “TAT-NOS1AP 400-506 (from UniProt O75052)”, in experiment [3], the Kd is 0.75 µM.

With NOS1AP-9C, the Kd in experiment [4] is more than 600 µM.
